Experimental data from article PMC6367273.

What was measured:
[1] = target: LPHN1-S (FLAG-tagged splice variant of murine LPHN1 with a truncated intracellular tail) (mouse); assay: immunostaining of cells or tissue; HEK-LPHN1-S, HEK-WT and HEK-Puro cells incubated with FITC-K37-mTCAP-1 (1:400) in medium with HEPES pH 7.4 and 0.1% BSA for 12 h at 4°C, washed, fixed, stained with Cy3-tagged FLAG antibody; confocal microscopy; green pixels (intensity 20-255) per cell
[2] = target: LPHN1-S (FLAG-tagged splice variant of murine LPHN1 with a truncated intracellular tail) (mouse)
[3] = target: LPHN1-S (FLAG-tagged splice variant of murine LPHN1 with a truncated intracellular tail) (mouse); remark: listed apart in the source

| Substance | green pixels per cell [1] [pixels/cell] | f-actin (Phalloidin red pixels per cell) in HEK-LPHN1-S cells treated with 100 nM mTCAP-1 for 60 min against vehicle; no significant change in HEK-WT cells [2] [%] | cell height of HEK-LPHN1-S cells treated with 100 nM mTCAP-1 for 60 min against vehicle; no significant change in HEK-WT cells [3] [%] |
| --- | --- | --- | --- |
| FITC-tagged K37-mTCAP-1 (peptide) | 49.5 |  |  |
| Mouse TCAP-1 (mTCAP-1), synthetic (peptide) |  | 343 | 39 |
